According to paper doi:10.1101/2021.04.14.439868:

B1: vvpE promoter (AB324/AB325) (dsDNA)
DNA 1: ATAAATCAAATTTGTAACTTTATTTCTGAGATGACTGTCCCATTTATCTTATTGATAAATCTGCGTAAAAAAGAAAAAGCACAATTTTATTACTAGTGTTT
DNA 2: AAACACTAGTAATAAAATTGTGCTTTTTCTTTTTTACGCAGATTTATCAATAAGATAAATGGGACAGTCATCTCAGAAATAAAGTTACAAATTTGATTTAT
B2: luxC promoter site B (JDN54/JDN55) (dsDNA)
DNA 1: TTACTTATTTATAGTGTTACAAATAACATTA
DNA 2: TAATGTTATTTGTAACACTATAAATAAGTAA

Columns and labels:
SmcR = target: T1, SmcR (Vibrio vulnificus ATCC 27562, UniProt Q9L8G8 1-205); test: EMSA
T1 sequence: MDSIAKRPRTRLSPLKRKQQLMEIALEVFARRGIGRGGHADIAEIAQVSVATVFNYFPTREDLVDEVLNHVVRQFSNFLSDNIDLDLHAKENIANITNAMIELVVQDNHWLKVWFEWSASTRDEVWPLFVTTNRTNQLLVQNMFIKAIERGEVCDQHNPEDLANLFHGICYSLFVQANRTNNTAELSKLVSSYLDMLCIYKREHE

LuxR = target: T2, LuxR (Vibrio campbellii BB120, UniProt P21308 1-205); test: EMSA
T2 sequence: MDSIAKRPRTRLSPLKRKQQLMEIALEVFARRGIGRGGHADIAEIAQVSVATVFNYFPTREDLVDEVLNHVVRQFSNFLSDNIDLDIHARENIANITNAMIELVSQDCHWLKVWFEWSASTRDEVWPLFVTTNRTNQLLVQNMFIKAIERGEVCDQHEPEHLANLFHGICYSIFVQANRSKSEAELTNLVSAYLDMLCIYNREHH

| Binder | binding result (SmcR) | binding result (LuxR) |
| --- | --- | --- |
| B1 | binds | – |
| B2 | – | binds |
